B1: Triggering receptor expressed on myeloid cells 2 (Homo sapiens), Q9NZC2 (parent)
chain: MEPLRLLILLFVTELSGAHNTTVFQGVAGQSLQVSCPYDSMKHWGRRKAWCRQLGEKGPCQRVVSTHNLWLLSFLRRWNGSTAITDDTLGGTLTITLRNLQPHDAGLYQCQSLHGSEADTLRKVLVEVLADPLDHRDAGDLWFPGESESFEDAHVEHSISRSLLEGEIPFPPTSILLLLACIFLIKILAASALWAAAWHGQKPGTHPPSELDCGHDPGYQLQTLPGLRDT

Variants of: B1
Conditions: with tyobp_human TYROBP

| effect of a mutation on the interaction | Variant |
| --- | --- |
| with no effect | MEPLRLLILLFVTELSGAHNTTVFQGVAGQSLQVSCPYDSMKHWGRHKAWCRQLGEKGPCQRVVSTHNLWLLSFLRRWNGSTAITDDTLGGTLTITLRNLQPHDAGLYQCQSLHGSEADTLRKVLVEVLADPLDHRDAGDLWFPGESESFEDAHVEHSISRSLLEGEIPFPPTSILLLLACIFLIKILAASALWAAAWHGQKPGTHPPSELDCGHDPGYQLQTLPGLRDT [R47H] |
| increasing interaction strength | MEPLRLLILLFVTELSGAHNTTVFQGVAGQSLQVSCPYDSMKHWGRRKAWCRQLGEKGPCQRVVSMHNLWLLSFLRRWNGSTAITDDTLGGTLTITLRNLQPHDAGLYQCQSLHGSEADTLRKVLVEVLADPLDHRDAGDLWFPGESESFEDAHVEHSISRSLLEGEIPFPPTSILLLLACIFLIKILAASALWAAAWHGQKPGTHPPSELDCGHDPGYQLQTLPGLRDT [T66M] |

Variants of: B1
Conditions: with tyobp_human TYROBP
Remark: another data set of the same source

| effect of a mutation on the interaction | Variant |
| --- | --- |
| with no effect | MEPLRLLILLFVTELSGAHNTTVFQGVAGQSLQVSCPYDSMKHWGRRKAWCRQLGEKGPCQRVVSTHNLWLLSFLRRWNGSTAITDDTLGGTLTITLRNLQPHDAGLYQCQSLHGCEADTLRKVLVEVLADPLDHRDAGDLWFPGESESFEDAHVEHSISRSLLEGEIPFPPTSILLLLACIFLIKILAASALWAAAWHGQKPGTHPPSELDCGHDPGYQLQTLPGLRDT [S116C] |
| with no effect | MEPLRLLILLFVTELSGAHNTTVFQGVAGQSLQVSCPYDSMKHWGRRKAWCRQLGEKGPCQRVVSMHNLWLLSFLRRWNGSTAITDDTLGGTLTITLRNLQPHDAGLYQCQSLHGSEADTLRKVLVEVLADPLDHRDAGDLWFPGESESFEDAHVEHSISRSLLEGEIPFPPTSILLLLACIFLIKILAASALWAAAWHGQKPGTHPPSELDCGHDPGYQLQTLPGLRDT [T66M] |

Source: IntAct's records for PubMed 28490631
